Measured values: the supplement of paper PMC7125110
± gives the standard error. For some of these results: Fewer inactive variants are shown than the library holds.

B1: glmS ribozyme (parent)
chain: AUAAAAGCGCCAGAACUACAGAAAUGUAGUUGACGAGGAGGAGGUUUAUCGAAUUUUCGGCGGAUGCCUCCAAA

Columns and labels:
Settings in all cases: with glucosamine-6-phosphate
[1] = variants of: B1; assay: kcat; higher = faster cleavage; RNA array
In short: (§1)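 Barcoded ribozyme variants were transcribed in situ on sequenced MiSeq chips by E. coli RNA polymerase. At 37 °C, a hybridised Cy3 probe tracked them while glucosamine-6-phosphate (40 μM to 10 mM) in HEPES/KCl/Mg(OAc)2 buffer flowed in and tiles were imaged over ~14 h. Per-tile medians of signals normalised to baseline and to non-cleaving reference variants were fit to one- or two-exponential decays, giving kobs. kcat and KM came from weighted Michaelis–Menten fits across concentrations.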

[2] = variants of: B1; assay: KM; higher = weaker cofactor use; RNA array
In short: as §1

[3] = variants of: B1; assay: self-cleavage kobs at 40 uM GlcN6P; higher = faster cleavage; RNA array
In short: as §1

[4] = variants of: B1; assay: self-cleavage kobs at 160 uM GlcN6P; higher = faster cleavage; RNA array
In short: as §1

[5] = variants of: B1; assay: self-cleavage kobs at 640 uM GlcN6P; higher = faster cleavage; RNA array
In short: as §1

[6] = variants of: B1; assay: self-cleavage kobs at 2500 uM GlcN6P; higher = faster cleavage; RNA array
In short: as §1

[7] = variants of: B1; assay: self-cleavage kobs at 10000 uM GlcN6P; higher = faster cleavage; RNA array
In short: as §1

Row | Variant | kcat [1] [s⁻¹] | KM [2] [µM] | self-cleavage kobs at 40 uM GlcN6P [3] [s⁻¹] | self-cleavage kobs at 160 uM GlcN6P [4] [s⁻¹] | self-cleavage kobs at 640 uM GlcN6P [5] [s⁻¹] | self-cleavage kobs at 2500 uM GlcN6P [6] [s⁻¹] | self-cleavage kobs at 10000 uM GlcN6P [7] [s⁻¹]
1 | A12U G66U | 0.00516 ± 0.00082 | 1550 ± 380 | 0.000146 ± 1.8e-05 | 0.000589 ± 0.0001 | 0.00128 ± 0.00014 | 0.00319 ± 0.00044 | 0.00479 ± 0.00055
2 | A15C U31C | 0.00282 ± 0.00061 | 3830 ± 1200 | 4.49e-05 ± 9.1e-06 | 0.000136 ± 3e-05 | 0.000359 ± 4.3e-05 | 0.00104 ± 0.00023 | 0.00211 ± 0.00024
3 | G32A C67G | 0.000177 ± 2.7e-05 | 1890 ± 580 | < 1e-05 | – | 4.83e-05 ± 6.9e-06 | 9.14e-05 ± 1.2e-05 | 0.000164 ± 2.4e-05
4 | U47A C67G | 0.000644 ± 7e-05 | 2020 ± 350 | – | 5.63e-05 ± 9.9e-06 | 0.000147 ± 1.3e-05 | 0.000379 ± 5.1e-05 | 0.000534 ± 6.4e-05
5 | U45C A48U | 7.71e-05 ± 4.6e-06 | 628 ± 170 | – | – | – | 6.49e-05 ± 1.5e-05 | 6.96e-05 ± 1.9e-05
6 | G44U | 0.000429 ± 5.3e-05 | 2040 ± 470 | – | 2.34e-05 ± 1.7e-06 | 0.000101 ± 2.1e-06 | 0.000282 ± 6.2e-06 | 0.000335 ± 6.6e-06
7 | C10U G35C | < 1e-05 | – | < 1e-05 | < 1e-05 | < 1e-05 | – | –
8 | A12U A14U | 0.00461 ± 0.0012 | 2000 ± 750 | 0.00011 ± 1.2e-05 | 0.000269 ± 5.6e-05 | 0.00119 ± 0.00018 | 0.00188 ± 0.00031 | 0.00449 ± 0.00046
9 | A39G G40C | 9.61e-05 ± 1.3e-05 | – | – | – | 4.2e-05 ± 1.4e-05 | 0.000101 ± 1.8e-05 | 8.35e-05 ± 1.4e-05
10 | G38U G40A | < 1e-05 | – | – | – | – | – | –
11 | U47G U54A | 0.00987 ± 0.0039 | – | 0.000306 ± 4.7e-05 | – | 0.00157 ± 0.00052 | 0.00522 ± 0.0019 | 0.00946 ± 0.0015
12 | U31A U57A | 0.000241 ± 3.5e-06 | 2390 ± 95 | – | – | 4.97e-05 ± 2.1e-05 | 0.000125 ± 2.8e-05 | 0.000194 ± 2.7e-05
13 | G32U A42G | 0.00137 ± 0.00021 | 3790 ± 810 | – | 4.61e-05 ± 1.7e-05 | 0.000218 ± 4e-05 | 0.000528 ± 0.00013 | 0.000988 ± 0.00023
14 | A36U U54A | < 1e-05 | – | – | – | – | – | –
15 | U46C A48C | 0.000204 ± 4.7e-05 | – | – | – | – | 8.54e-05 ± 2.8e-05 | 0.000136 ± 2.8e-05
16 | U30G C58G A64C C67G C71G | 4.36e-05 ± 1.6e-05 | – | – | 5.89e-05 ± 2e-05 | – | – | –
17 | G38U U47G | < 1e-05 | – | < 1e-05 | – | – | – | –
